Experimental data from paper PMC10153361, “Mechanism of imidazole inhibition of a GH1 β‐glucosidase” (FEBS Open Bio, 2023).

Substrate: O=[N+]([O-])c1ccc(O[C@@H]2O[C@H](CO)[C@@H](O)[C@H](O)[C@H]2O)cc1
Assay: purified protein
Format: biochemical, Spodoptera frugiperda
Settings: 100 mM phosphate pH 6.0, 30 °C

B1: Sfβgly (GH1 β-glucosidase from Spodoptera frugiperda) (Spodoptera frugiperda) (protein)
chain: QQRRFPDDFLFGTATASYQIEGAWDEDGKGENIWDYMVHNTPEVIRDLSNGDIAADSYHNYKRDVEMMRELGLDAYRFSLSWARILPTGMANEVNPAGIAFYNNYIDEMLKYNITPLITLYHWDLPQKLQELGGFANPLISDWFEDYARVVFENFGDRVKMFITFNEPREICFEGYGSATKAPILNATAMGAYLCAKNLVTAHAKAYYLYDREFRPVQGGQCGITISVNWFGPATPTPEDEMAAELRRQGEWGIYAHPIFSAEGGFPKELSDKIAEKSAQQGYPWSRLPEFTEEEKAFVRGTSDLIGVNHYTAFLVSATERKGPYPVPSLLDDVDTGSWADDSWLKSASAWLTLAPNSIHTALTHLNNLYNKPVFYITENGWSTDESRENSLIDDDRIQYYRASMESLLNCLDDGINLKGYMAWSLMDNFEWMEGYIERFGLYEVDFSDPARTRTPRKAAFVYKHIIKHRVVDYEYEPETMVMTIDEGH
notes: recombinant, E. coli BL21(DE3), vector pET46, Ni-NTA purified; secreted digestive midgut enzyme; catalytic residues E187 and E399
- Km: 1730 ± 40 µM
- kcat: 1.33 ± 0.333 s⁻¹
